# Assay results reported in the supplement of paper PMC12764529.
# ± gives the half width of the 95% confidence interval.
# Columns and labels:
# [1] = folding stability dG unfold from chymotrypsin proteolysis; higher = more stable
# Procedure, shortened: (§1)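 K50 was inferred by Bayesian fitting of sequencing counts obtained after protease digestion of designed mini-proteins. Unfolding free energy was derived by comparison with a sequence-predicted unfolded-state K50 and a shared folded-state K50, for each protease or both combined. The mini-proteins were under 80 residues, had no cysteine, were carried in a PA-tagged cDNA display construct, and were kept only if AlphaFold2 dimer inter-PAE exceeded 15.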
# [2] = folding stability dG unfold from trypsin proteolysis; higher = more stable
# Procedure, shortened: as §1
# [3] = folding stability dG unfold (combined trypsin and chymotrypsin); higher = more stable
# Procedure, shortened: as §1
Sequence,folding stability dG unfold [1],folding stability dG unfold [2],folding stability dG unfold [3]
SAGGSAGGSGMVEEEEYEDPATGVRTRTTTTYLPNGTVVRTPVVYTPDRPVEEVPTVTPIPSGSAGGSAGGS [r20_88_JUSTAS],0.62 ± 0.13 kcal/mol,1.04 ± 0.075 kcal/mol,0.958 ± 0.21 kcal/mol
SAGGSAGGSAPGSMLRIPVSEEELKKKGLTPEELAKEIRERYPELPESVVVEFPPDGNIVIVESAGGSAGGS [r12_50_JUSTAS],0.885 ± 0.056 kcal/mol,0.906 ± 0.05 kcal/mol,1 ± 0.16 kcal/mol
SAGGSAGGAPPDLKVTVKPTPGPGTGQRYTVVVELDEGGVLPFPFSFASPSEVEKAAKAIAALLSAGGSAGG [r6_996_TrMRF],1.57 ± 0.14 kcal/mol,1.02 ± 0.056 kcal/mol,1.31 ± 0.14 kcal/mol
SAGPPGQPIKPIDITVKPEENTITIKFGDKNLEIPIPPGVEADIWVYPDHIVITIEFPDGKIVTIVLPFSAG [r5_21_TrROS],4.46 ± 0.19 kcal/mol,3.73 ± 0.31 kcal/mol,4.33 ± 0.26 kcal/mol
SAGSKVPVTATATFSDKAELEKTVADIKAKTGYDIEVTYDPNSNSYTITVNTTDEVVKMLKEKGFKLESAGG [r19_306_JUSTAS],1.94 ± 0.13 kcal/mol,2.33 ± 0.13 kcal/mol,2.14 ± 0.28 kcal/mol
SAWIPAKEIAKYLAKELQEKMPHPGMKIPVDVETNPEENYVRVDIDIEHPGDGGKWKFEIYIPPGDTIVSAG [r14_849_TrROS],1.8 ± 0.095 kcal/mol,0.664 ± 0.038 kcal/mol,1.29 ± 0.12 kcal/mol
SAGGIEEAIKEGKTVIIRVKVIDKETGKEYERTIEVPANEEISLEELLKALLPPGYEVEIEVVELEPSAGGS [r8_127_TrROS_Hall],3.03 ± 0.51 kcal/mol,3.78 ± 0.33 kcal/mol,3.65 ± 0.4 kcal/mol
SMKLKPGQTAKIVEIKENYIYIEVNGKKYKISLEELKEKGYEIKIVNGKIVEIRPKPKKKLSEEELKKLKSA [r9_842_TrROS_Hall],1.04 ± 0.16 kcal/mol,1.13 ± 0.077 kcal/mol,1.16 ± 0.15 kcal/mol
SAGGSAGGSAVTIYIPWDEILEELGLPPEDVEYKPMKNGSYSFKYKNGKPVTIIMPPEDFKSAGGSAGGSAG [r3_477_TrROS],1.07 ± 0.2 kcal/mol,-0.12 ± 0.29 kcal/mol,0.663 ± 0.19 kcal/mol
SAGITIRLPGAEIEVQRYPHPGNGMPMYRVTVELENPEGKKPKVDVIFPPNQPPGQVENVARYIAKELKSAG [r5_704_TrROS],-0.302 ± 0.28 kcal/mol,0.858 ± 0.13 kcal/mol,0.472 ± 0.16 kcal/mol
SAGKNEVLKVDIEYDPETGIIRLKTTYPNGLKEEKLIFKIPGTGKWYTAWNSEYEEGKEYQDFGILPESAGG [r19_394_TrMRF],2.35 ± 0.05 kcal/mol,1.98 ± 0.15 kcal/mol,2.02 ± 0.12 kcal/mol
SAGGSAGGSAMVILTPDGYLKVIKSITVEEALDPETDEPVLDVKAEVEVIPLPSLDDPAFKESAGGSAGGSA [r18_6_TrMRF],0.447 ± 0.087 kcal/mol,0.251 ± 0.076 kcal/mol,0.396 ± 0.24 kcal/mol
MEEEEKKKAETPEIPEEVAREKALEVARELGLEEIEEIEVLSASPEGYVTVRITLPTGGEVEITIPISELES [r1_435_JUSTAS],2.76 ± 0.08 kcal/mol,2.01 ± 0.13 kcal/mol,2.54 ± 0.18 kcal/mol
SAGMMVKVEIEFPLTLTTTEKVGTGPNGIPVFETREEIVVITFRATVPENPEEVAAAKEEAKAVAEALSSAG [r14_223_JUSTAS],2.08 ± 0.11 kcal/mol,1.8 ± 0.042 kcal/mol,1.89 ± 0.2 kcal/mol
SAGGSAGGSILVIKIKFPGNGRPIHYPIKDPEDFDRVLKKAKERFPGYDKDNIKEAEIYPLPPSAGGSAGGS [r12_852_TrROS],-0.00689 ± 0.29 kcal/mol,-0.436 ± 0.22 kcal/mol,-0.0696 ± 0.17 kcal/mol
SAGGSAMAYLVRAELEVEGPDGRRERLELVLVAEDLPLEEALAAAREAAAELGAELVSVEVEPLEPSAGGSA [r15_550_TrMRF],2.55 ± 0.039 kcal/mol,0.858 ± 0.061 kcal/mol,2.21 ± 0.098 kcal/mol
SAGGSAGGSAGMRKYTWPFRIPLGGKPFEIRVEMEYDPSSGKHRIEITPEAKDLIKKKIFSAGGSAGGSAGG [r11_91_TrROS],0.839 ± 0.088 kcal/mol,0.59 ± 0.069 kcal/mol,0.875 ± 0.058 kcal/mol
SAGGSAGGSAGGDIFIPPNGKLVVIENLPSIEEALEILKNFPNLKPFIDPKTKKIIVPVSAGGSAGGSAGGS [r10_792_TrMRF],-0.338 ± 0.045 kcal/mol,-0.145 ± 0.075 kcal/mol,-0.216 ± 0.099 kcal/mol
SAGMSLVPLEELARAWAEERGLPVLDVEVPESRSPATRHVTITLTLRDPATGALTTETRELVIPEEELGSAG [r5_421_JUSTAS],0.583 ± 0.096 kcal/mol,0.585 ± 0.077 kcal/mol,0.621 ± 0.1 kcal/mol
SAGGSAGGSAGGFIPEDGHPDETVQLTTSLTLTTSYTLPNGETVTETHTVPVLFTYKVPSAGGSAGGSAGGS [r10_1135_TrMRF],1.02 ± 0.071 kcal/mol,0.433 ± 0.02 kcal/mol,0.797 ± 0.054 kcal/mol
SAGGSAGGSASMNVLVVRTKPDGTPEVTEVETGDPEKAKEEIAKRSNVTTPEGTVTVELTGVSAGGSAGGSA [r18_457_JUSTAS],-1.06 ± 0.27 kcal/mol,-1.02 ± 0.13 kcal/mol,-0.961 ± 0.46 kcal/mol
